Laboratory results published in patent US20140178293A1, “METHODS FOR IMAGING BONE PRECURSOR CELLS USING DUAL-LABELED IMAGING AGENTS TO DETECT MMP-9 POSITIVE CELLS” (BAYLOR COLLEGE OF MEDICINE, priority 2011, published 2014).
Read-outs that look alike come from different tables or passages of the source. Positions of bridges follow the written chain, without caps; N, C: chain ends. No end group written: not given here. *: point of attachment. DOTA = O=C(O)CN1CCN(CC(=O)O)CCN(CC(=O)*)CCN(CC(=O)O)CC1

Assays:
MMP-9 [1] = biological target: T1, MMP-9 (Mus musculus, UniProt P41245); test: in vivo NIR fluorescence imaging of ^64Cu-M2 in murine model of BMP-2 induced HO; set-up: injected intramuscularly into each hind limb quadriceps muscle of nonobese diabetic/severely compromised immunodeficient (NOD/SCID) mice; from tissue; host or cells: hind limb muscle of living NOD/SCID mice injected with AdBMP2- or Adempty-transduced human fibroblasts
Method: NIR fluorescence images were acquired using custom-built fluorescence imaging systems (Houston et al., 2005) 18 hours after intravenous administration of ^64Cu-M2. Briefly, a field of view was illuminated with 785 nm of light from a laser diode, outfitted with a convex lens and diffuser to create a uniform excitation field. The fluorescence was collected through holographic and interference filters placed before a Nikon camera lens. The images were finally captured by an electron-multiplying charge-coupled device camera (PhotonMax 512; Princeton Instruments, Princeton, N.J.) with 200 to 400 milliseconds of integration time. For acquisition of white-light images, the optical filters were removed, and a low-power lamp illuminated the subject. Image acquisition was accomplished by V++ software (Aukland, New Zealand).

MMP-9 [2] = biological target: T1, MMP-9
in vitro = in vitro ADME; conditions: mouse, serum
Method: (§1) After radiolabeling, 150 μl of ^64Cu-M2 was diluted in equal volumes of PBS or DTPA solution and kept at room temperature. Aliquots were taken at 0, 2, 6 and 24 hrs post-incubation and analyzed by radio-HPLC. To evaluate serum stability, 150 μl of ^64Cu-M2 was added to 150 μl of 50% mouse serum and incubated at 37° C. An 80 μl aliquot was taken at each of the above-mentioned time points and added to 160 μl ice-cold acetonitrile. The samples were centrifuged at 14,000 g for 5 min and the supernatant was collected and analyzed by radio-HPLC.

[3] = in vitro stability of ^64Cu-M2 in PBS or 500-fold excess DTPA (radio-HPLC); format: physicochemical; conditions: room temperature, normalized to 100% at t=0
Method: as §1

[4] = characterization of fluorescent properties; format: physicochemical
Method: Fluorescence intensity of the fluorophores was determined using the Fluorolog Tau-3 Spectrofluorometer (Horiba Jobin Yvon, Edison, N.J.) with excitation from a xenon arc lamp and absorbance was recorded using the DU-800 Spectrophotometer (Beckman Coulter, Brea Calif.). Fluorescence excitation and emission spectra were obtained at wavelengths of 785 and 830 nm respectively, with an integration time of 0.3 seconds for 1 μM solutions of IRDye 800CW, M2 and ^68Ga-M2 (n=4). Fluorescence measurements for IRDye 800CW and M2 were performed in aqueous solution under ambient conditions, whereas ^68Ga-M2 was prepared as previously described in NaOAc (pH 4) to provide an accurate representation of the ^68Ga-labeling scheme. Extinction coefficients were determined from the slope of absorbance at 785 nm as a function of the concentration of serial dilutions of each agent. Fluorescence quantum yield was determined by the comparative method of Williams et al. (Williams et al., 1983) using the quantum yield of ICGO (Φ=0.016) at 785/830 nm as a standard.

[5] = aqueous solution, 785/830 nm, used as standard; cited from earlier work
[6] = biological target: MMP-9 in mouse hind limb tissue (BMP-2 induced HO model, NOD/SCID mice) (mouse, UniProt P41245 108-730, limits assumed); test: cell-based or functional assay
[7] = biological target: MMP-9 (AnaSpec, Fremont, Calif.) (UniProt P14780 107-707, limits assumed); test: cell-based or functional assay
[8] = 4 days post-implantation with 200x M1 as blocking (24 hours prior)
[9] = 1 μM solutions, IRDye 800CW and M2 aqueous, ^68Ga-M2 in NaOAc pH 4

T1 sequence (P41245 108-730): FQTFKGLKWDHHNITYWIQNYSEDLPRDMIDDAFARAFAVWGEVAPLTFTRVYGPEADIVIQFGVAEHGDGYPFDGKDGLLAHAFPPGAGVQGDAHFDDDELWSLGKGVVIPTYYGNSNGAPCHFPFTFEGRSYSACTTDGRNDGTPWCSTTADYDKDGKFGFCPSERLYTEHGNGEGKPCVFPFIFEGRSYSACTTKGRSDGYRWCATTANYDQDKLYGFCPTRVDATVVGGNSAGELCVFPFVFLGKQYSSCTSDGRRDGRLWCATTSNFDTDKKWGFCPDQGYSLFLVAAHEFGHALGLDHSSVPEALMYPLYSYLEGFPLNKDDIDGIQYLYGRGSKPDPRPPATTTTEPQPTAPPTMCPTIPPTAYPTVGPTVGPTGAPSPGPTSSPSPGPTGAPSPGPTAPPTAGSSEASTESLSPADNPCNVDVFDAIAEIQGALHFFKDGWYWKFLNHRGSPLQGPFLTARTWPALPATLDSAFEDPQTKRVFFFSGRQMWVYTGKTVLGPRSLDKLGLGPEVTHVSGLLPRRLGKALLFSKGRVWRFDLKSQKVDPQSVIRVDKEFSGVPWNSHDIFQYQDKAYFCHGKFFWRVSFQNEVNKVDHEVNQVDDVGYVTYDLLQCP
Sequence of MMP-9 in mouse hind limb tissue (BMP-2 induced HO model, NOD/SCID mice) (P41245 108-730 limits assumed): as the sequence (P41245 108-730) above
Sequence of MMP-9 (AnaSpec, Fremont, Calif.) (P14780 107-707 limits assumed): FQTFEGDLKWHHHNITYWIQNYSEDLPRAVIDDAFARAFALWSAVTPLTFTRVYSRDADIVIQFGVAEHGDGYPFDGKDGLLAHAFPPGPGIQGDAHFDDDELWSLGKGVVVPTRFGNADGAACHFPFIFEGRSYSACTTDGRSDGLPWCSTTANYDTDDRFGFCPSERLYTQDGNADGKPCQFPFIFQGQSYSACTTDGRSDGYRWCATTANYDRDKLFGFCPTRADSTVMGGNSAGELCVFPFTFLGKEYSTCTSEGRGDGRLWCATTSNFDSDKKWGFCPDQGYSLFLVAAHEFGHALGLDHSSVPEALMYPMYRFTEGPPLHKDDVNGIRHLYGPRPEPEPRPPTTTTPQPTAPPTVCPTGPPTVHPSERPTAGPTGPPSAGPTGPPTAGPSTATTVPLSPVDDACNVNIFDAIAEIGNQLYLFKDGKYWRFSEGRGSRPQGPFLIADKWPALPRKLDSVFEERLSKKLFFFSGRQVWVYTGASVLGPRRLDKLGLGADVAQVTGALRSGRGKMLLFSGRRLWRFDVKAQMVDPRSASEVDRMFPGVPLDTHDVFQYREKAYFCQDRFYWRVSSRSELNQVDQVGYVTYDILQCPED

Question: Which “Target/background ratio (NIR)” value (MMP-9 [1]; 2 days post-implantation, 18 hours after i.v. administration) does the source give for `CC(C)C[C@@H]1NC(=O)[C@H]([C@@H](C)O)NC(=O)[C@H](Cc2ccccc2)NC(=O)CNC(=O)[C@H](Cc2c[nH]c3ccccc23)NC(=O)[C@H](Cc2c[nH]cn2)NC(=O)[C@H](C)NC(=O)[C@@H](NC(=O)[C@H](CCCCNC(=O)CCCCC[N+]2=C(C=CC3=C(Oc4ccc(S(=O)(=O)O)cc4)C(=CC=C4N(CCCCS(=O)(=O)O)c5ccc(S(=O)(=O)O)cc5C4(C)C)CCC3)C(C)(C)c3cc(S(=O)(=O)[O-])ccc32)NC(=O)CN2CCN(CC(=O)O)CCN(CC(=O)O)CCN(CC(=O)O)CC2)CCCCNC(=O)C[C@@H](C(=O)O)NC1=O` (single isomer, unassigned) [^64Cu-M2, metal not drawn] here?
Answer: 1.13 ± 0.03

Question: And the “Target/background ratio (NIR)” value (MMP-9 [1]; [8])?
Answer: 1.13 ± 0.18

Question: And the “Target/background ratio (NIR)” value (MMP-9 [1]; 4 days post-implantation, 18 hours after i.v. administration)?
Answer: 1.24 ± 0.05

Question: And the “Target/background ratio (NIR)” value (MMP-9 [1]; 6 days post-implantation, 18 hours after i.v. administration)?
Answer: 1.10 ± 0.03

Question: What about the “Target/background ratio (PET/CT)” value (MMP-9 [2]; 2 days post-implantation, 200 μCi, 6 nmol i.v.) of the same molecule?
Answer: 3.29±0.9

Question: And the “Target/background ratio (PET/CT)” value (MMP-9 [2]; [8])?
Answer: 1.44±0.66

Question: And the “Target/background ratio (PET/CT)” value (MMP-9 [2]; 4 days post-implantation, 200 μCi, 6 nmol i.v.)?
Answer: 4.02±1.39

Question: And the “Target/background ratio (PET/CT)” value (MMP-9 [2]; 6 days post-implantation, 200 μCi, 6 nmol i.v.)?
Answer: 3.41±0.51

Question: And the “% injected dose/g (PET/CT)” value (MMP-9 [2]; NOD/SCID, mouse, in vivo, iv, 6 nmol)?
Answer: 0.61 ± 0.04 % injected dose/g

Question: And the whole-body distribution (MMP-9 [2]; mouse, in vivo, iv)?
Answer: slow clearance from circulation along with uptake in the liver and kidneys

Question: What about the remaining at 2 h (in vitro) of the same molecule?
Answer: 99.6 ± 0.6%

Question: And the remaining at 6 h (in vitro)?
Answer: 94.8 ± 0.6%

Question: And the remaining at 24 h (in vitro)?
Answer: 53.7 ± 3.7%

Question: What about the “percentage of intact component” value ([3]; DTPA, 2 hrs) of the same molecule?
Answer: 97.8 ± 1.3%

Question: What about the “percentage of intact component” value ([3]; DTPA, 6 hrs) of the same molecule?
Answer: 97.7 ± 0.6%

Question: And the “percentage of intact component” value ([3]; DTPA, 24 hrs)?
Answer: 96.4±1.1%

Question: And the “percentage of intact component” value ([3]; PBS, 24 hrs)?
Answer: 98.9 ± 1.5%

Question: Which Emission maximum [4, 9] does the source give for `CC1(C)C(=CC=C2CCCC(C=CC3=[N+](CCCCCC(=O)[O-])c4ccc(S(=O)(=O)[O-])cc4C3(C)C)=C2Oc2ccc(S(=O)(=O)[O-])cc2)N(CCCCS(=O)(=O)[O-])c2ccc(S(=O)(=O)[O-])cc21.[Na+].[Na+].[Na+].[Na+]` [IRDye 800CW, reference compound] here?
Answer: 830 nm

Question: What about the Excitation wavelength [4, 9] of the same molecule?
Answer: 785 nm

Question: What about the Quantum yield ([4]; 785/830 nm, relative to ICG (Φ=0.016)) of the same molecule?
Answer: 0.034

Question: What about the Extinction coefficient ([4]; absorbance at 785 nm, serial dilutions, mean ± SD (n=4)) of the same molecule?
Answer: 181,458 ± 2,189 M^−1cm^−1

Question: With “(lactam 2,10) DOTA-KKAHWGFTLD ({DOTA}-KKAHWGFTLD; lactam 2-10) [M1]” as the molecule, how does the “bone formation by μCT after blocking dose” value (MMP-9 [2]; 200-fold excess of M1, μCT after 7 days) read?
Answer: still exhibited bone formation

Question: With `CC1(C)C(/C=C/C=C/C=C/C=C2\N(CCCCS(=O)(=O)O)c3ccc4ccccc4c3C2(C)C)=[N+](CCCCS(=O)(=O)[O-])c2ccc3ccccc3c21` [ICG, indocyanine green] as the molecule, how does the “quantum yield of standard” value [5] read?
Answer: 0.016

B1: ^64Cu-M2 (peptide)
peptide: {DOTA}-KKAHWGFTLD
modifications: lactam 2-10; also: DOTA chelating 64Cu, IRDye 800CW conjugated through a reactive amine group
Question: With B1 as the molecule, how does the “Target/background ratio (NIR), day 2 post-implantation” value [6] read?
Answer: 1.13 ratio

Question: And the “Target/background ratio (NIR), day 4 post-implantation” value [6]?
Answer: 1.24 ratio

Question: And the “Target/background ratio (NIR), day 4 with 200x M1 as blocking” value [6]?
Answer: 1.13 ratio

Question: And the “Target/background ratio (NIR), day 6 post-implantation” value [6]?
Answer: 1.1 ratio

Question: And the “Target/background ratio (PET/CT), day 2 post-implantation” value [6]?
Answer: 3.29 ratio

Question: What about the “Target/background ratio (PET/CT), day 4 post-implantation” value [6] of the same molecule?
Answer: 4.02 ratio

Question: What about the “Target/background ratio (PET/CT), day 4 with 200x M1 as blocking” value [6] of the same molecule?
Answer: 1.44 ratio

Question: What about the “Target/background ratio (PET/CT), day 6 post-implantation” value [6] of the same molecule?
Answer: 3.41 ratio

B2: dual-conjugate M2 (M1 conjugated with IRDye 800CW) (peptide)
peptide: {DOTA}-KKAHWGFTLD
modifications: lactam 2-10; also: IRDye 800CW conjugated through an amine, site not given here
Question: With B2 as the molecule, how does the “inhibition of MMP-9 by gelatin zymography” value [7] read?
Answer: 10 fold decrease compared to M1
